Assay [1] concerns the target T1, Human soluble uPAR (residues 1-277) (human, UniProt Q03405 23-299).
T1 construct: also called soluble human uPAR
As to the kind of experiment: equilibrium SPR (Biacore 1000), IgG immobilized on a CM5 chip, soluble uPAR as analyte, one site binding model.

For assay [2], the target named is T1, Human soluble uPAR (residues 1-277). As to the kind of experiment: equilibrium SPR (Biacore), IgG immobilized, soluble uPAR as analyte (FIG. 4). On the technique in general: SPR reads the build-up and loss of mass on a sensor chip optically.
Assay [3] deals with T2, Membrane-bound human uPAR on cells (human, UniProt Q03405 23-305).
T2 construct: whole, on cells; Also used for endogenous uPAR in H1299 lysates (co-immunoprecipitation) and in tumor xenografts and sections; also called cell surface uPAR; CD87
T2 sequence (Q03405 23-305): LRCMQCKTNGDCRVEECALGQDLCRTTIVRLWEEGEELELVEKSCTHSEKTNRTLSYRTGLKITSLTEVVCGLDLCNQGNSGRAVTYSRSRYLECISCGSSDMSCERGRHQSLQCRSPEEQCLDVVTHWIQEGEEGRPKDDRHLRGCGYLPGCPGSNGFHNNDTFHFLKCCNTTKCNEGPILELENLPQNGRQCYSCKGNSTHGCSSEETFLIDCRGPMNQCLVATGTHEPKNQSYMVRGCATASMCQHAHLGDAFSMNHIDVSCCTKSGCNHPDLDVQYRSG
As to the kind of experiment: in vivo imaging, 2 nmol labelled IgG, 48 hours after injection.

T1 sequence (Q03405 23-299): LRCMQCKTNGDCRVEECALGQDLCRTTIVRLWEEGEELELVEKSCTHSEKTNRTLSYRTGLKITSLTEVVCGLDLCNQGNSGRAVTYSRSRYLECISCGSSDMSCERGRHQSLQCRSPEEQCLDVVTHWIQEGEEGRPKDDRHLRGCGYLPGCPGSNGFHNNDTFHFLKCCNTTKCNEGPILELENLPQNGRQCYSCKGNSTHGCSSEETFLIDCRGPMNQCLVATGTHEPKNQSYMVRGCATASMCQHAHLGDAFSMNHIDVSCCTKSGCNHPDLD

B1: 1A8 IgG (antibody, V domains shown)
VH: QVQLQQSGPGLVKPSQTLSLTCAISGDSVSSNSAAWNWIRQSPSRGLEWLGRTYYRSKWYNDYAVSVKSRITINPDTSKNQFSLQLNSVTPEDTAVYYCTRDPGGALDDSFDIWGQGTMVTVSS
VL: DVVMTQSPASLSVSVGDRVTLTCQASQVINNHLNWYQQQPGKAPKLLVYDASNLETGVPSRFSGSGSGTDFTFTISGLQPEDIATYYCQQSDNLPLTFGGGTKLEIKR
notes: also called 1A8 IgG1; not shown: human IgG1 constant region of vector pTT5-SP-H1
In general, Kd refers to a measure of binding affinity in units of concentration. A low value points to a tighter complex. Consider B1, for which, in assay [1], the Kd came to 23.8 nM.

B2: 2G10 IgG (antibody, V domains shown)
VH: QVQLQQSGPGLVKPSQTLSLTCAISGDSVSSNSAAWNWIRQSPSRGLEWLGRTYYRSKWYNDYAVSVKSRIIINPDTSKNQFSLQLNSVTPEDTAVYYCARDPGGPLDDSFDIWGQGTMVTVSS
VL: DVVMTQSPLSLPVTPGEPASISCRSSQSLLRSNGYNYLDWYLQKPGQSPQLLIYLGSIRASGVPDRFSGSGSGTDFTLRISRVEAEDVGVYYCMQALQTPFTFGQGTKLEIKR
modifications: Alexa Fluor 680 (about 15 dyes per IgG) or DOTA-111In in the imaging experiments. It is unlabelled in SPR and flow cytometry.
notes: Used with an Alexa Fluor 680 or 111In-DOTA label in the in vivo imaging; also called 2G10 IgG1; DOTA-2G10 IgG
Take B2: the Kd in assay [2] is approximately 40.5 nM; in assay [1], 40.5 nM.

B3: 2E9 IgG (antibody, V domains shown)
VH: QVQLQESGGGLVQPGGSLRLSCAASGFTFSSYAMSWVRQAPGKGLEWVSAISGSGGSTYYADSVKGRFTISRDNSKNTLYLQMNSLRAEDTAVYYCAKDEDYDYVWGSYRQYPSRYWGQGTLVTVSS
VL: QSVLTQPPSVSVSPGQTASITCSGDNLGYKYASWYQQKPGQSPVLIIYQDKKRPSGIPERFSGSNSGNTATLTISGTQAMDEADYYCQAWDSSTSVVFGGGTKLTVLG
notes: also called 2E9 IgG1; not shown: human IgG1 constant region of vector pTT5-SP-H1
With B3, the affinity in assay [1], expressed as Kd, was 9.2 nM.

B4: 3C6 IgG (antibody, V domains shown)
VH: QVQLQQWGAGLLKPSETLSLTCAVYGGSFSGYYWSWIRQPPGKGLEWIGEINHSGSTNYNPSLKSRVTISVDTSKNQFSLKLSSVTAADTAVYYCARGRRFGDFDYWGQGTLVTVSS
VL: QPVLTQPPSVSVAPGKTARITCGGNNIGSKSVHWYQQKPGQAPVLVVYDDSDRPPGIPERFSGSNSGNTATLTISRVEAGDEADYYCQVWDSSSDHSPFGTGTKVTVLG
notes: not shown: IgG constant region; the making of 3C6 IgG is not described
On to B4, for which the binding result in assay [3] was “binds”.
